How the values were obtained:
HeLa Kyoto [1] = test: solubility change mitosis vs G1/S (difference of NP-40 vs SDS log2 ratios) (log2 ratio difference); higher = more soluble in mitosis
HeLa Kyoto [2] = test: thermal stability score vs G1/S (z-score of summed log2 fold changes over temperatures); higher = more thermally stable than in G1/S
HeLa Kyoto [3] = test: solubility in G1/S (NP-40 vs SDS abundance) (log2 ratio); higher = more soluble; details: cell cycle stage: G1/S
HeLa Kyoto [4] = test: melting temperature (median over replicates), in situ; higher = more thermally stable
[5] = cell cycle stage: early G1 (4.5 h after nocodazole release)
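Wherever melting temperature (median over replicates), in situ is given: HeLa Kyoto cells synchronized by double thymidine or nocodazole block, proteins quantified by TMT10plex mass spectrometry, three independent biological replicates.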
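Wherever solubility change mitosis vs G1/S (difference of NP-40 vs SDS log2 ratios) is given: synchronized HeLa Kyoto cells (double thymidine block for G1/S, nocodazole release for mitosis), protein amounts in NP-40 versus SDS lysates quantified by mass spectrometry, three biological replicates.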
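Wherever solubility in G1/S (NP-40 vs SDS abundance) is given: HeLa Kyoto cells arrested at G1/S by double thymidine block, proteins quantified by TMT10plex mass spectrometry in mild NP-40 versus SDS extracts, three biological replicates.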
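Wherever thermal stability score vs G1/S (z-score of summed log2 fold changes over temperatures) is given: synchronized HeLa Kyoto cells, proteins quantified by TMT10plex mass spectrometry, three biological replicates, mitosis taken 0.5 h after nocodazole release, G1/S directly after double thymidine block.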

Sequence | solubility change mitosis (log2) (HeLa Kyoto [1]) | thermal stability score (HeLa Kyoto [2]; [5]) | thermal stability score (HeLa Kyoto [2]; cell cycle stage: mitosis) | solubility in G1/S (log2) (HeLa Kyoto [3]) | melting temperature (HeLa Kyoto [4]; cell cycle stage: G1/S) [°C] | melting temperature (HeLa Kyoto [4]; cell cycle stage: mitosis) [°C]
MEMEKEFEQIDKSGSWAAIYQDIRHEASDFPCRVAKLPKNKNRNRYRDVSPFDHSRIKLHQEDNDYINASLIKMEEAQRSYILTQGPLPNTCGHFWEMVWEQKSRGVVMLNRVMEKGSLKCAQYWPQKEEKEMIFEDTNLKLTLISEDIKSYYTVRQLELENLTTQETREILHFHYTTWPDFGVPESPASFLNFLFKVRESGSLSPEHGPVVVHCSAGIGRSGTFCLADTCLLLMDKRKDPSSVDIKKVLLEMRKFRMGLIQTADQLRFSYLAVIEGAKFIMGDSSVQDQWKELSHEDLEPPPEHIPPPPRPPKRILEPHNGKCREFFPNHQWVKEETQEDKDCPIKEEKGSPLNAAPYGIESMSQDTEVRSRVVGGSLRGAQAASPAKGEPSLPEKDEDHALSYWKPFLVNMCVATVLTAGAYLCYRFLFNSNT [PTPN1] | -0.122 | 1.7 | 4.54 | 0.0951 | 49.4 | 50.1
MEMEQEKMTMNKELSPDAAAYCCSACHGDETWSYNHPIRGRAKSRSLSASPALGSTKEFRRTRSLHGPCPVTTFGPKACVLQNPQTIMHIQDPASQRLTWNKSPKSVLVIKKMRDASLLQPFKELCTHLMEENMIVYVEKKVLEDPAIASDESFGAVKKKFCTFREDYDDISNQIDFIICLGGDGTLLYASSLFQGSVPPVMAFHLGSLGFLTPFSFENFQSQVTQVIEGNAAVVLRSRLKVRVVKELRGKKTAVHNGLGENGSQAAGLDMDVGKQAMQYQVLNEVVIDRGPSSYLSNVDVYLDGHLITTVQGDGVIVSTPTGSTAYAAAAGASMIHPNVPAIMITPICPHSLSFRPIVVPAGVELKIMLSPEARNTAWVSFDGRKRQEIRHGDSISITTSCYPLPSICVRDPVSDWFESLAQCLHWNVRKKQAHFEEEEEEEEEG [NADK] | 0.129 | -6.99 | -2.68 | 0.208 | 61.1 | 59.2
MENMAEEELLPLEKEEVEVAQVQVPTPARDSAGVPAPAPDSALDSAPTPASAPAPAPALAQAPALSPSLASAPEEAKSKRHISIQRQLADLENLAFVTDGNFDSASSLNSDNLDAGNRQACPLCPKEKFRACNSHKLRRHLQNLHWKVSVEFEGYRMCICHLPCRPVKPNIIGEQITSKMGAHYHCIICSATITRRTDMLGHVRRHMNKGETKSSYIAASTAKPPKEILKEADTDVQVCPNYSIPQKTDSYFNPKMKLNRQLIFCTLAALAEERKPLECLDAFGATGIMGLQWAKHLGNAVKVTINDLNENSVTLIQENCHLNKLKVVVDSKEKEKSDDILEEGEKNLGNIKVTKMDANVLMHLRSFDFIHLDPFGTSVNYLDSAFRNIRNLGIVSVTSTDISSLYAKAQHVARRHYGCNIVRTEYYKELAARIVVAAVARAAARCNKGIEVLFAVALEHFVLVVVRVLRGPTSADETAKKIQYLIHCQWCEERIFQKDGNMVEENPYRQLPCNCHGSMPGKTAIELGPLWSSSLFNTGFLKRMLFESLHHGLDDIQTLIKTLIFESECTPQSQFSIHASSNVNKQEENGVFIKTTDDTTTDNYIAQGKRKSNEMITNLGKKQKTDVSTEHPPFYYNIHRHSIKGMNMPKLKKFLCYLSQAGFRVSRTHFDPMGVRTDAPLMQFKSILLKYSTPTYTGGQSESHVQSASEDTVTERVEMSVNDKAEASGCRRW [TRMT1L] | 0.324 | -0.774 | -3 | -0.537 | 51.8 | 50.9
MENQVLTPHVYWAQRHRELYLRVELSDVQNPAISITENVLHFKAQGHGAKGDNVYEFHLEFLDLVKPEPVYKLTQRQVNITVQKKVSQWWERLTKQEKRPLFLAPDFDRWLDESDAEMELRAKEEERLNKLRLESEGSPETLTNLRKGYLFMYNLVQFLGFSWIFVNLTVRFCILGKESFYDTFHTVADMMYFCQMLAVVETINAAIGVTTSPVLPSLIQLLGRNFILFIIFGTMEEMQNKAVVFFVFYLWSAIEIFRYSFYMLTCIDMDWKVLTWLRYTLWIPLYPLGCLAEAVSVIQSIPIFNETGRFSFTLPYPVKIKVRFSFFLQIYLIMIFLGLYINFRHLYKQRRRRYGQKKKKIH [HACD3] | -0.00775 | -0.451 | -1.3 | -0.3 | 53.8 | 53.9
MENSSAASASSEAGSSRSQEIEELERFIDSYVLEYQVQGLLADKTEGDGESERTQSHISQWTADCSEPLDSSCSFSRGRAPPQQNGSKDNSLDMLGTDIWAANTFDSFSGATWDLQPEKLDFTQFHRKVRHTPKQPLPHIDREGCGKGKLEDGDGINLNDIEKVLPAWQGYHPMPHEVEIAHTKKLFRRRRNDRRRQQRPPGGNKPQQHGDHQPGSAKHNRDHQKSYQGGSAPHPSGRPTHHGYSQNRRWHHGNMKHPPGDKGEAGAHRNAKETMTIENPKLEDTAGDTGHSSLEAPRSPDTLAPVASERLPPQQSGGPEVETKRKDSILPERIGERPKITLLQSSKDRLRRRLKEKDEVAVETTTPQQNKMDKLIEILNSMRNNSSDVDTKLTTFMEEAQNSTNSEEMLGEIVRTIYQKAVSDRSFAFTAAKLCDKMALFMVEGTKFRSLLLNMLQKDFTVREELQQQDVERWLGFITFLCEVFGTMRSSTGEPFRVLVCPIYTCLRELLQSQDVKEDAVLCCSMELQSTGRLLEEQLPEMMTELLASARDKMLCPSESMLTRSLLLEVIELHANSWNPLTPPITQYYNRTIQKLTA [CTIF] | 0.157 | -0.292 | 0.109 | 0.0528 | 52.1 | –
MEPAMEPETLEARINRATNPLNKELDWASINGFCEQLNEDFEGPPLATRLLAHKIQSPQEWEAIQALTVLETCMKSCGKRFHDEVGKFRFLNELIKVVSPKYLGSRTSEKVKNKILELLYSWTVGLPEEVKIAEAYQMLKKQGIVKSDPKLPDDTTFPLPPPRPKNVIFEDEEKSKMLARLLKSSHPEDLRAANKLIKEMVQEDQKRMEKISKRVNAIEEVNNNVKLLTEMVMSHSQGGAAAGSSEDLMKELYQRCERMRPTLFRLASDTEDNDEALAEILQANDNLTQVINLYKQLVRGEEVNGDATAGSIPGSTSALLDLSGLDLPPAGTTYPAMPTRPGEQASPEQPSASVSLLDDELMSLGLSDPTPPSGPSLDGTGWNSFQSSDATEPPAPALAQAPSMESRPPAQTSLPASSGLDDLDLLGKTLLQQSLPPESQQVRWEKQQPTPRLTLRDLQNKSSSCSSPSSSATSLLHTVSPEPPRPPQQPVPTELSLASITVPLESIKPSNILPVTVYDQHGFRILFHFARDPLPGRSDVLVVVVSMLSTAPQPIRNIVFQSAVPKVMKVKLQPPSGTELPAFNPIVHPSAITQVLLLANPQKEKVRLRYKLTFTMGDQTYNEMGDVDQFPPPETWGSL [GGA1] | -0.28 | -0.271 | -0.0298 | 0.556 | 51.6 | 51.6
MEPAPARSPRPQQDPARPQEPTMPPPETPSEGRQPSPSPSPTERAPASEEEFQFLRCQQCQAEAKCPKLLPCLHTLCSGCLEASGMQCPICQAPWPLGADTPALDNVFFESLQRRLSVYRQIVDAQAVCTRCKESADFWCFECEQLLCAKCFEAHQWFLKHEARPLAELRNQSVREFLDGTRKTNNIFCSNPNHRTPTLTSIYCRGCSKPLCCSCALLDSSHSELKCDISAEIQQRQEELDAMTQALQEQDSAFGAVHAQMHAAVGQLGRARAETEELIRERVRQVVAHVRAQERELLEAVDARYQRDYEEMASRLGRLDAVLQRIRTGSALVQRMKCYASDQEVLDMHGFLRQALCRLRQEEPQSLQAAVRTDGFDEFKVRLQDLSSCITQGKDAAVSKKASPEAASTPRDPIDVDLPEEAERVKAQVQALGLAEAQPMAVVQSVPGAHPVPVYAFSIKGPSYGEDVSNTTTAQKRKCSQTQCPRKVIKMESEEGKEARLARSSPEQPRPSTSKAVSPPHLDGPPSPRSPVIGSEVFLPNSNHVASGAGEAEERVVVISSSEDSDAENSSSRELDDSSSESSDLQLEGPSTLRVLDENLADPQAEDRPLVFFDLKIDNETQKISQLAAVNRESKFRVVIQPEAFFSIYSKAVSLEVGLQHFLSFLSSMRRPILACYKLWGPGLPNFFRALEDINRLWEFQEAISGFLAALPLIRERVPGASSFKLKNLAQTYLARNMSERSAMAAVLAMRDLCRLLEVSPGPQLAQHVYPFSSLQCFASLQPLVQAAVLPRAEARLLALHNVSFMELLSAHRRDRQGGLKKYSRYLSLQTTTLPPAQPAFNLQALGTYFEGLLEGPALARAEGVSTPLAGRGLAERASQQS [PML] | 0.33 | -0.223 | 2.23 | -0.134 | 50.3 | 50.5
MEPEAPRRRHTHQRGYLLTRNPHLNKDLAFTLEERQQLNIHGLLPPSFNSQEIQVLRVVKNFEHLNSDFDRYLLLMDLQDRNEKLFYRVLTSDIEKFMPIVYTPTVGLACQQYSLVFRKPRGLFITIHDRGHIASVLNAWPEDVIKAIVVTDGERILGLGDLGCNGMGIPVGKLALYTACGGMNPQECLPVILDVGTENEELLKDPLYIGLRQRRVRGSEYDDFLDEFMEAVSSKYGMNCLIQFEDFANVNAFRLLNKYRNQYCTFNDDIQGTASVAVAGLLAALRITKNKLSDQTILFQGAGEAALGIAHLIVMALEKEGLPKEKAIKKIWLVDSKGLIVKGRASLTQEKEKFAHEHEEMKNLEAIVQEIKPTALIGVAAIGGAFSEQILKDMAAFNERPIIFALSNPTSKAECSAEQCYKITKGRAIFASGSPFDPVTLPNGQTLYPGQGNNSYVFPGVALGVVACGLRQITDNIFLTTAEVIAQQVSDKHLEEGRLYPPLNTIRDVSLKIAEKIVKDAYQEKTATVYPEPQNKEAFVRSQMYSTDYDQILPDCYSWPEEVQKIQTKVDQ [ME1] | -0.171 | -1.35 | -1.4 | 0.144 | 56.5 | 56.7
MEPEPEPAAVEVPAGRVLSARELFAARSRSQKLPQRSHGPKDFLPDGSAAQAERLRRCREELWQLLAEQRVERLGSLVAAEWRPEEGFVELKSPAGKFWQTMGFSEQGRQRLHPEEALYLLECGSIHLFHQDLPLSIQEAYQLLLTDHTVTFLQYQVFSHLKRLGYVVRRFQPSSVLSPYERQLNLDASVQHLEDGDGKRKRSSSSPRSINKKAKALDNSLQPKSLAASSPPPCSQPSQCPEEKPQESSPMKGPGGPFQLLGSLGPSPGPAREGVGCSWESGRAENGVTGAGKRRWNFEQISFPNMASDSRHTLLRAPAPELLPANVAGRETDAESWCQKLNQRKEKLSRREREHHAEAAQFQEDVNADPEVQRCSSWREYKELLQRRQVQRSQRRAPHLWGQPVTPLLSPGQASSPAVVLQHISVLQTTHLPDGGARLLEKSGGLEIIFDVYQADAVATFRKNNPGKPYARMCISGFDEPVPDLCSLKRLSYQSGDVPLIFALVDHGDISFYSFRDFTLPQDVGH [TSEN54] | -0.153 | 0.317 | 0.466 | 0.322 | 48.8 | 50

From the supplement of paper PMC5998384
